Five molecules from US9730926B2, “Combination therapy using bispecific anti-c-Met/anti-EGFR antibody and c-Src inhibitor” (Samsung Electronics Co., Ltd., priority 2014, dated 2017) can be followed below.

Assay [1] concerns EGFR T790M mutated non-small cell lung cancer cell line (H1975). As to conditions: FIGS. 17 to 19; for cell proliferation, co-treatment with bispecific antibody compared to c-Src inhibitor alone: c-Src inhibitor 10, 100, 1000 nM + 5 μg/ml ME22S, HGF and EGF 100 ng/ml, 72 hours; for dose dependence of the synergistic effect by co-treatment with bispecific antibody: c-Src inhibitor concentration varied, ME22S 5 μg/ml.
Protocol: (§1) The cells were stored in RPMI1640 medium (GIBCO) containing 10%(v/v) FBS under the conditions of 5% CO2 and 37° C., until being used in the following experiments. A cell proliferation assay was performed as follows.
(§2) In detail, RPMI1640 medium (GIBCO) containing 10% FBS was added to 96-well plate.
(§3) At 72 hours after the treatment, 10 μL of Cell Counting Kit-8 solution (Dojindo Molecular Technologies, Gaithersburg, Md.) was added to each well, and left at room temperature for 2 hours.

Assay [2] concerns K-Ras mutated colorectal cancer cell line (HCT-116 cell line). As to the kind of experiment: Cell proliferation assay (Cell Counting Kit-8), HCT-116 cell line. Format: cell-based. The note with it: for cell proliferation, co-treatment with ME22S compared to c-Src inhibitor alone: dasatinib 10-1000 nM or saracatinib 10-10000 nM + 5 μg/ml ME22S. For orientation: Tetrazolium assays rely on reduction of a dye to a coloured formazan, in cell work by metabolically active cells.
Protocol: as §1
RPMI1640 medium (GIBCO) containing 10% FBS was added to 96-well plate.
as §3, §2

Assay [3] concerns K-Ras mutated colorectal cancer cell line (Lovo cell line). The assay is described as follows: Cell proliferation assay (Cell Counting Kit-8), Lovo cell line. Format: cell-based. The note with it: for cell proliferation, co-treatment with ME22S compared to c-Src inhibitor alone: c-Src inhibitor 10, 100, 1000 nM + 5 μg/ml ME22S.
For assay [4] the test system is unchanged. The description is as above. As to conditions: FIG. 4, FIG. 5. It is filed as cell-based. The protocol:
To examine the cell proliferation inhibition effect depending on the amount of a bispecific anti-c-Met/anti-EGFR antibody, the experiment was carried out by varying the amount of the treated bispecific anti-c-Met/anti-EGFR antibody with fixing the amount of dasatini as 30 nM.
This experiment was conducted referring to the experiment of the cell proliferation test depending on the amount of the antibody as described above, except the amount of the treated antibody and the c-Src inhibitor.

Assay [5] has as its system EGFR T790M mutated non-small cell lung cancer cell line (H820 cell line). As to the kind of experiment: Cell proliferation assay (Cell Counting Kit-8), H820 cell line. Format: cell-based. An excerpt: The H820 cell line was obtained from ATCC. The H820 cells comprise EGFR T790M mutation.
The mark [6] stands for this setting: 5 μg/ml alone, HGF and EGF 100 ng/ml, 72 hours.

Take `COc1cc(Nc2c(C#N)cnc3cc(OCCCN4CCN(C)CC4)c(OC)cc23)c(Cl)cc1Cl` [bosutinib, 4-[(2,4-dichloro-5-methoxyphenyl)amino]-6-methoxy-7-[3-(4-methylpiperazin-1-yl)propoxy]quinoline-3-carbonitrile]: in assay [1], the “cell proliferation, co-treatment with bispecific antibody compared to c-Src inhibitor alone” value was “significantly synergistic therapeutic effect” and the “dose dependence of the synergistic effect by co-treatment with bispecific antibody” value is “generally dose-dependent for the c-Src inhibitor”.
For `Cc1nc(Nc2ncc(C(=O)Nc3c(C)cccc3Cl)s2)cc(N2CCN(CCO)CC2)n1` [dasatinib, N-(2-chloro-6-methylphenyl)-2-[[6-[4-(2-hydroxyethyl)-1-piperazinyl]-2-methyl-4-pyrimidinyl]amino]-5-thiazole carboxamide monohydrate, reference compound], the “cell proliferation, co-treatment with ME22S compared to c-Src inhibitor alone” value was “significantly synergistic therapeutic effect” in assay [2] (72 hours, FIG. 14, FIG. 15) and “more synergistic therapeutic effect” in assay [3] (72 hours, FIG. 6, FIG. 7).
With `CN1CCN(CCOc2cc(OC3CCOCC3)c3c(Nc4c(Cl)ccc5c4OCO5)ncnc3c2)CC1` [saracatinib, 4-Quinazolinamine, N-(5-Chloro-1,3-benzodioxol-4-yl)-7-[2-(4-methyl-1-piperazinyl)ethoxy]-5-[(tetrahydro-2H-pyran-4-yl)oxy]-4-quinazolinamine], the “cell proliferation, co-treatment with bispecific antibody compared to c-Src inhibitor alone” value in assay [1] is recorded as “significantly synergistic therapeutic effect”. Also, the “dose dependence of the synergistic effect by co-treatment with bispecific antibody” value in assay [1] is recorded as “generally dose-dependent for the c-Src inhibitor”. In addition, the “dose dependence of the synergistic effect by co-treatment with ME22S” value is recorded as “generally dose-dependent for the c-Src inhibitor” in assay [2] (c-Src inhibitor concentration varied, ME22S 5 μg/ml, FIG. 14, FIG. 15) and “generally dose-dependent for the c-Src inhibitor” in assay [3] (c-Src inhibitor concentration varied, ME22S fixed at 5 μg/ml, FIG. 6, FIG. 7). The “cell proliferation, co-treatment with ME22S compared to c-Src inhibitor alone” value is on record as “significantly synergistic therapeutic effect” in assay [2] (72 hours, FIG. 14, FIG. 15) and “more synergistic therapeutic effect” in assay [3] (72 hours, FIG. 6, FIG. 7).

B1: ME-19: bispecific anti-c-Met/anti-EGFR antibody: anti-EGFR DARPin fused to C-terminus of L3-1Y heavy chain through (G4S)2 linker (antibody)
heavy: EVQLVESGGGLVQPGGSLRLSCAASGFTFTDYYMSWVRQAPGKGLEWLGFIRNKANGYTTEYSASVKGRFTISRDNSKNTLYLQMNSLRAEDTAVYYCARDNWFAYWGQGTLVTVSSASTKGPSVFPLAPCSRSTSESTAALGCLVKDYFPEPVTVSWNSGALTSGVHTFPAVLQSSGLYSLSSVVTVPSSNFGTQTYTCNVDHKPSNTKVDKTVERKCCVECPPCPAPPVAGPSVFLFPPKPKDTLMISRTPEVTCVVVDVSHEDPEVQFNWYVDGVEVHNAKTKPREEQFNSTFRVVSVLTVVHQDWLNGKEYKCKVSNKGLPAPIEKTISKTKGQPREPQVYTLPPSREEMTKNQVSLTCLVKGFYPSDIAVEWESNGQPENNYKTTPPMLDSDGSFFLYSKLTVDKSRWQQGNVFSCSVMHEALHNHYTQKSLSLSPGKGGGGSGGGGSDLGKKLLEAARAGQDDEVRILMANGADVNADDTWGWTPLHLAAYQGHLEIVEVLLKNGADVNAYDYIGWTPLHLAADGHLEIVEVLLKNGADVNASDYIGDTPLHLAAHNGHLEIVEVLLKHGADVNAQDKFGKTAFDISIDNGNEDLAEILQ
light: DIQMTQSPSSLSASVGDRVTITCKSSQSLLASGNQNNYLAWYQQKPGKAPKMLIIWASTRVSGVPSRFSGSGSGTDFTLTISSLQPEDFATYYCQQSYSRPYTFGQGTKVEIKRTVAAPSVFIFPPSDEQLKSGTASVVCLLNNFYPREAKVQWKVDNALQSGNSQESVTEQDSKDSTYSLSSTLTLSKADYEKHKVYACEVTHQGLSSPVTKSFNRGEC
Consider B1, for which, in assay [4] (ME-19 10, 1, 0.1, 0.01 μg/ml or ME22S 1, 0.1, 0.01 μg/ml + 30 nM dasatinib, 72 hours), the “cell proliferation, co-treatment with dasatinib compared to bispecific antibody alone” value is listed as “more synergistic therapeutic effect”. For the same molecule, the “dose dependence of the synergistic effect by co-treatment with dasatinib” value in assay [4] (antibody concentration varied, dasatinib fixed at 30 nM) was “dose-dependent for the antibody”. Besides, the “cell proliferation, co-treatment with c-Src inhibitor compared to either alone” value in assay [5] (ME19 0.01, 0.1, 1 or 10 μg/ml + dasatinib 30 nM, 72 hours, FIG. 10) is given as “more considerable inhibition effect on the cell proliferation”. The “dose dependence of the inhibition effect on cell proliferation” value in assay [5] (ME19 concentration varied, dasatinib 30 nM, FIG. 10) was “generally dose-dependent for the bispecific anti-c-Met/anti-EGFR antibody”. In addition, the “cell proliferation, bispecific antibody + dasatinib compared to co-treatment of dasatinib, L3-1Y and erbitux” value in assay [2] (5 μg/ml ME19 + 5 nM dasatinib, 72 hours, FIG. 13) is given as “considerable inhibition effect on cancer cell proliferation”; in assay [3] (5 μg/ml antibody + 30 nM dasatinib, 72 hours) it was “considerable inhibition effect on cancer cell proliferation”. Besides, the “cell proliferation, co-treatment with dasatinib compared to each of the drugs” value in assay [2] (5 μg/ml ME19 + 5 nM dasatinib, HGF and EGF 100 ng/ml, 72 hours, FIG. 13) is on record as “more considerable cell proliferation inhibition effect”. The “cell proliferation, combination with dasatinib compared to the drugs alone” value in assay [3] (5 μg/ml antibody + 30 nM dasatinib, HGF and EGF 100 ng/ml, 72 hours, FIG. 2, FIG. 3) is given as “considerable inhibitory effect on the cell proliferation”.

B2: L3-1Y: anti-c-Met antibody: huAbF46-H4-A1 variable regions, human IgG2 hinge and constant region, human kappa light chain (antibody)
heavy: EVQLVESGGGLVQPGGSLRLSCAASGFTFTDYYMSWVRQAPGKGLEWLGFIRNKANGYTTEYSASVKGRFTISRDNSKNTLYLQMNSLRAEDTAVYYCARDNWFAYWGQGTLVTVSSASTKGPSVFPLAPCSRSTSESTAALGCLVKDYFPEPVTVSWNSGALTSGVHTFPAVLQSSGLYSLSSVVTVPSSNFGTQTYTCNVDHKPSNTKVDKTVERKCCVECPPCPAPPVAGPSVFLFPPKPKDTLMISRTPEVTCVVVDVSHEDPEVQFNWYVDGVEVHNAKTKPREEQFNSTFRVVSVLTVVHQDWLNGKEYKCKVSNKGLPAPIEKTISKTKGQPREPQVYTLPPSREEMTKNQVSLTCLVKGFYPSDIAVEWESNGQPENNYKTTPPMLDSDGSFFLYSKLTVDKSRWQQGNVFSCSVMHEALHNHYTQKSLSLSPGK
light: DIQMTQSPSSLSASVGDRVTITCKSSQSLLASGNQNNYLAWYQQKPGKAPKMLIIWASTRVSGVPSRFSGSGSGTDFTLTISSLQPEDFATYYCQQSYSRPYTFGQGTKVEIKRTVAAPSVFIFPPSDEQLKSGTASVVCLLNNFYPREAKVQWKVDNALQSGNSQESVTEQDSKDSTYSLSSTLTLSKADYEKHKVYACEVTHQGLSSPVTKSFNRGEC
Turning to B2, the “cell proliferation, L3-1Y in combination with erbitux” value in assay [5] (5 μg/ml L3-1Y + 5 μg/ml erbitux, 72 hours) was “increased cell proliferation”; in assay [3] (5 μg/ml L3-1Y + 5 μg/ml erbitux, HGF and EGF 100 ng/ml, 72 hours) it was “increased cell proliferation”. In addition, the “cell proliferation, antibody alone” value in assay [5] (setting [6]) and in assay [3] (setting [6]) was “increased cell proliferation” throughout.
